Consider seven molecules from PMC10397247.

One test concerns the target T1, P8A.
T1 chain: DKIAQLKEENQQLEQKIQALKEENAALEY
The test can be described thus: two-hybrid library CCNG1.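 Also: natural log of median RNA to DNA barcode read ratio; higher means stronger binding.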

The next test deals with T2, P9A.
T2 chain: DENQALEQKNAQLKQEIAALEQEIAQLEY
The test can be described thus: two-hybrid library CCNG1.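 Also: natural log of median RNA to DNA barcode read ratio; higher means stronger binding.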

A further test concerns the target T3, 4H2717-bA.
T3 chain: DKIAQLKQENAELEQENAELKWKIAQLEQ
The test can be described thus: two-hybrid library CCNG1.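 Also: natural log of median RNA to DNA barcode read ratio; higher means stronger binding.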

In a further test the target is T4, 4H2839-bA.
T4 chain: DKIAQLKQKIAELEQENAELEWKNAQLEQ
Briefly: two-hybrid library CCNG1.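 Also: natural log of median RNA to DNA barcode read ratio; higher means stronger binding.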

A further test deals with T5, 4H2915-bA.
T5 chain: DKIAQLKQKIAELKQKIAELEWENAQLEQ
The test can be described thus: two-hybrid library CCNG1.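 Also: natural log of median RNA to DNA barcode read ratio; higher means stronger binding.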

A further test concerns the target T6, 4H3057-bA.
T6 chain: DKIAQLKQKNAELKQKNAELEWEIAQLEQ
Briefly: two-hybrid library CCNG1.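 Also: natural log of median RNA to DNA barcode read ratio; higher means stronger binding.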

For the next test, the target named is T7, 4H3277-bA.
T7 chain: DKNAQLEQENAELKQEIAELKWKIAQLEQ
Briefly: two-hybrid library CCNG1.

For another test, the target named is T8, 4H348-bA.
T8 chain: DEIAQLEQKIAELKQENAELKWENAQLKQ
The test can be described thus: two-hybrid library CCNG1.

For the next test, the target named is T9, 4H40-bA.
T9 chain: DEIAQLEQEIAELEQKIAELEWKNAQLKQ
Briefly: two-hybrid library CCNG1.

Another test addresses T10, 4H477-bA.
T10 chain: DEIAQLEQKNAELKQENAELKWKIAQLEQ
The test can be described thus: two-hybrid library CCNG1.

In the next test the target is T11, 4H492-bA.
T11 chain: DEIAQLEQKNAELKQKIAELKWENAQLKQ
The test can be described thus: two-hybrid library CCNG1.

A further test concerns the target T12, 4H741-bA.
T12 chain: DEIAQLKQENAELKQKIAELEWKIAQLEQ
The test can be described thus: two-hybrid library CCNG1.

Another test deals with T13, 4H319-bA.
T13 chain: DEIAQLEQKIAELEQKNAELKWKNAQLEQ
Briefly: two-hybrid library CCNG1.

A further test addresses T14, O5-bS.
T14 chain: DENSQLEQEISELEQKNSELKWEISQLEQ
Briefly: two-hybrid library CCNG1.

The next test deals with T15, O6-bS.
T15 chain: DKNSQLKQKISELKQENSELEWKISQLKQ
The test can be described thus: two-hybrid library CCNG1.

Another test addresses T16, O7-bS.
T16 chain: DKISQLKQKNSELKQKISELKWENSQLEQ
The test can be described thus: two-hybrid library CCNG1.

Another test deals with T17, O8-bS.
T17 chain: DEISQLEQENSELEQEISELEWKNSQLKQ
Briefly: two-hybrid library CCNG1.

Another test addresses T18, O9-bS.
T18 chain: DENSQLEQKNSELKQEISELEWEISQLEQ
The test can be described thus: two-hybrid library CCNG1.

In a further test the target is T19, 4H3364-bA.
T19 chain: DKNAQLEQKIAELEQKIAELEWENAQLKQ
Briefly: two-hybrid library CCNG1.

Another test deals with T20, 4H3381-bA.
T20 chain: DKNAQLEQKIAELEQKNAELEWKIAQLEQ
Briefly: two-hybrid library CCNG1.

A further test concerns the target T21, 4H349-bA.
T21 chain: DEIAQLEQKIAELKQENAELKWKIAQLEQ
Briefly: two-hybrid library CCNG1.

The target in another test is T22, 4H56-bA.
T22 chain: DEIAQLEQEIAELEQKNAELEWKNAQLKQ
Briefly: two-hybrid library CCNG1.

A further test has as its target T23, 4H730-bA.
T23 chain: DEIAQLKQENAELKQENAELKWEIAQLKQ
The test can be described thus: two-hybrid library CCNG1.

In another test the target is T24, 4H796-bA.
T24 chain: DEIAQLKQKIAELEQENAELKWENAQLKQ
Briefly: two-hybrid library CCNG1.

For another test, the target named is T25, 4H932-bA.
T25 chain: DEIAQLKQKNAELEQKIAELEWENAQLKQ
Briefly: two-hybrid library CCNG1.

The target of a further test is T26, 4H949-bA.
T26 chain: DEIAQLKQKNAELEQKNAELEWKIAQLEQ
Briefly: two-hybrid library CCNG1.

A further test deals with T27, 4H2604-AA.
T27 chain: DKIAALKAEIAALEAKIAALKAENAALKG
Briefly: two-hybrid library CCmax.

Another test deals with T28, 4H2621-AA.
T28 chain: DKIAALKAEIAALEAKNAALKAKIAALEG
The test can be described thus: two-hybrid library CCmax. As to conditions: mean of both orientations.

The next test has as its target T29, 4H2760-AA.
T29 chain: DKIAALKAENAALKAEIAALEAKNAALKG
The test can be described thus: two-hybrid library CCmax. The note with it: mean of both orientations.

A further test deals with T30, 4H2774-AA.
T30 chain: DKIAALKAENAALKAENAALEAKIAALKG
The test can be described thus: two-hybrid library CCmax. The note with it: mean of both orientations.

A further test concerns the target T31, 4H2903-AA.
T31 chain: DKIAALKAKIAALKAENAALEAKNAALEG
The test can be described thus: two-hybrid library CCmax. The note with it: mean of both orientations.

The target of the next test is T32, 4H2947-AA.
T32 chain: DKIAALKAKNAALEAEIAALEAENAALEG
The test can be described thus: two-hybrid library CCmax. As to conditions: mean of both orientations.

A further test deals with T33, 4H2961-AA.
T33 chain: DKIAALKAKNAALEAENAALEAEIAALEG
The test can be described thus: two-hybrid library CCmax. The note with it: mean of both orientations.

In a further test the target is T34, 4H3049-AA.
T34 chain: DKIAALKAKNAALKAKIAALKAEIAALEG
Briefly: two-hybrid library CCmax. As to conditions: mean of both orientations.

A further test has as its target T35, 4H3094-AA.
T35 chain: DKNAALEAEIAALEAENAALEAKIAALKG
Briefly: two-hybrid library CCmax. As to conditions: mean of both orientations.

The target in another test is T36, 4H324-AA.
T36 chain: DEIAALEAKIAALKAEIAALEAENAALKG
Briefly: two-hybrid library CCmax. As to conditions: mean of both orientations.

For the next test, the target named is T37, 4H341-AA.
T37 chain: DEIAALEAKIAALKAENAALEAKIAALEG
Briefly: two-hybrid library CCmax. As to conditions: mean of both orientations.

Another test has as its target T38, 4H3449-AA.
T38 chain: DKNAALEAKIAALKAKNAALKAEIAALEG
Briefly: two-hybrid library CCmax. The note with it: mean of both orientations.

The next test deals with T39, 4H3619-AA.
T39 chain: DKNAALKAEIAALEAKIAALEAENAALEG
Briefly: two-hybrid library CCmax. The note with it: mean of both orientations.

The target of another test is T40, 4H3629-AA.
T40 chain: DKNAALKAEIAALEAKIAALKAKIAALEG
The test can be described thus: two-hybrid library CCmax. The note with it: mean of both orientations.

The target of the next test is T41, 4H3777-AA.
T41 chain: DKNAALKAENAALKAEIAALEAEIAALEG
The test can be described thus: two-hybrid library CCmax. The note with it: mean of both orientations.

The target of a further test is T42, 4H380-AA.
T42 chain: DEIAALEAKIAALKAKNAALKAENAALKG
The test can be described thus: two-hybrid library CCmax. As to conditions: mean of both orientations.

Another test concerns the target T43, 4H3915-AA.
T43 chain: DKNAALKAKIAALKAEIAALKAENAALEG
Briefly: two-hybrid library CCmax. The note with it: mean of both orientations.

The target of another test is T44, 4H3974-AA.
T44 chain: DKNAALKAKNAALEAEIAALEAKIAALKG
Briefly: two-hybrid library CCmax. The note with it: mean of both orientations.

The next test has as its target T45, 4H432-AA.
T45 chain: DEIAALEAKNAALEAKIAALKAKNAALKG
Briefly: two-hybrid library CCmax. As to conditions: mean of both orientations.

In the next test the target is T46, 4H446-AA.
T46 chain: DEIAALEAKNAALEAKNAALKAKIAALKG
Briefly: two-hybrid library CCmax. The note with it: mean of both orientations.

The target of another test is T47, 4H63-AA.
T47 chain: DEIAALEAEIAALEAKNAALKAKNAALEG
The test can be described thus: two-hybrid library CCmax. As to conditions: mean of both orientations.

Another test has as its target T48, 4H462-bA.
T48 chain: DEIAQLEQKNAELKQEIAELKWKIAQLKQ
The test can be described thus: two-hybrid library CCNG1.

For another test, the target named is T49, 4H568-bA.
T49 chain: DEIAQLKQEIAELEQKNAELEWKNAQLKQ
The test can be described thus: two-hybrid library CCNG1.

A further test has as its target T50, 4H570-bA.
T50 chain: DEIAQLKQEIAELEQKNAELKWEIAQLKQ
Briefly: two-hybrid library CCNG1.

A further test concerns the target T51, 4H607-bA.
T51 chain: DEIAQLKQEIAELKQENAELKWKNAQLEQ
Briefly: two-hybrid library CCNG1.

A further test addresses T52, 4H687-bA.
T52 chain: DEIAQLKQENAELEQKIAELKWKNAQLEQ
Briefly: two-hybrid library CCNG1.

In a further test the target is T53, 4H72-bA.
T53 chain: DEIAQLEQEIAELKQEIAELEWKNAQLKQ
Briefly: two-hybrid library CCNG1.

For the next test, the target named is T54, 4H797-bA.
T54 chain: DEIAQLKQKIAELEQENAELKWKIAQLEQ
The test can be described thus: two-hybrid library CCNG1.

Another test addresses T55, 4H883-bA.
T55 chain: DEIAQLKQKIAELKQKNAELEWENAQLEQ
Briefly: two-hybrid library CCNG1.

The target of a further test is T56, 4H906-bN.
T56 chain: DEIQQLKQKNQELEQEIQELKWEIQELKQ
Briefly: two-hybrid library CCNG1.

The target in the next test is T57, 4H918-bA.
T57 chain: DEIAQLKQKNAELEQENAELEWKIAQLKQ
The test can be described thus: two-hybrid library CCNG1.

The target of another test is T58, 4H953-bA.
T58 chain: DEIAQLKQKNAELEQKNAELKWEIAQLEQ
The test can be described thus: two-hybrid library CCNG1.

A further test addresses T59, 4H967-bA.
T59 chain: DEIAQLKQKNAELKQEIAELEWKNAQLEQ
Briefly: two-hybrid library CCNG1.

For a further test, the target named is T60, O6-bA.
T60 chain: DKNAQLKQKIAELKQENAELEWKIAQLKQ
Briefly: two-hybrid library CCNG1.

B1: P8A (peptide)
chain: DKIAQLKEENQQLEQKIQALKEENAALEY
Consider B1, for which the interaction score with P8A was -1.27; with P9A, -1.56.

B2: 4H2717-bA (peptide)
chain: DKIAQLKQENAELEQENAELKWKIAQLEQ
Consider B2, for which the interaction score with 4H2717-bA was 1.02; in the test with 4H2839-bA, -0.857; with 4H2915-bA, -0.721; in the test with 4H3057-bA, 1.23; in the test with 4H3277-bA, -0.874; with 4H348-bA, -1.06. In addition, the interaction score with 4H40-bA is -1.55; with 4H477-bA, 0.776; with 4H492-bA it was -1.39; with 4H741-bA it was -1.48.

B3: 4H2839-bA (peptide)
chain: DKIAQLKQKIAELEQENAELEWKNAQLEQ
Turning to B3, the interaction score was 0.104 with 4H2839-bA; -0.223 in the test with 4H2915-bA; -0.0141 with 4H3057-bA; 1.61 with 4H319-bA; -0.969 with 4H3277-bA; -0.533 with 4H348-bA. Also, the interaction score with 4H40-bA is 1.35; with 4H477-bA, -0.768; with 4H492-bA, -0.582; with 4H741-bA, -0.816.

B4: O5-bS (peptide)
chain: DENSQLEQEISELEQKNSELKWEISQLEQ
Regarding B4, the interaction score is -1.98 in the test with O5-bS; 2.08 with O6-bS; -1.98 in the test with O7-bS; -1.34 with O8-bS; -0.729 with O9-bS.

B5: 4H3364-bA (peptide)
chain: DKNAQLEQKIAELEQKIAELEWENAQLKQ
Consider B5, for which the interaction score in the test with 4H3364-bA was 1.01; with 4H3381-bA, -0.647; in the test with 4H349-bA it was -1.53; with 4H56-bA, 0.349; with 4H730-bA it was 0.124; with 4H796-bA it was 0.137. Also, the interaction score was -0.586 in the test with 4H932-bA, -1.22 with 4H949-bA and -0.26 with P8A.

B6: 4H2604-AA (peptide)
chain: DKIAALKAEIAALEAKIAALKAENAALKG
Turning to B6, the interaction score is 1.78 with 4H2604-AA; -0.139 with 4H2621-AA; -1.02 in the test with 4H2760-AA; -1.79 with 4H2774-AA; -0.407 with 4H2903-AA; -1.68 in the test with 4H2947-AA. In addition, the interaction score with 4H2961-AA was -1.69; with 4H3049-AA, -0.492; with 4H3094-AA, -1.23; with 4H324-AA, 2.07; with 4H341-AA, 0.155; with 4H3449-AA, -0.758. The interaction score with 4H3619-AA is -0.188; with 4H3629-AA it was 1.84; with 4H3777-AA, -1.38; with 4H380-AA it was 1.01; with 4H3915-AA, 0.216; with 4H3974-AA it was -0.774. Also, the interaction score with 4H432-AA was -1.37; with 4H446-AA, -1.79; in the test with 4H63-AA, -1.37.

B7: 4H462-bA (peptide)
chain: DEIAQLEQKNAELKQEIAELKWKIAQLKQ
For B7, the interaction score is 1.24 with 4H462-bA; -0.962 with 4H568-bA; -2.87 with 4H570-bA; -0.0392 in the test with 4H607-bA; 0.993 with 4H687-bA; 0.312 in the test with 4H72-bA. The interaction score was -0.251 in the test with 4H797-bA; -1.19 with 4H883-bA; 0.676 with 4H906-bN; -1.06 with 4H918-bA; -0.872 with 4H953-bA; -0.0789 in the test with 4H967-bA. This molecule also came in with an interaction score with O6-bA of 1.7.
